# Source: article doi:10.1101/2022.02.17.480908
# Molecular target: urea pre-unfolded MLucV (stable small aggregates) (firefly)
# Experiment: SEC-RALS
substance,measurement,value
urea pre-unfolded MLucV (stable small aggregates),stoichiometry N,12
